Tests used:
[1] = biological target: T1, mouse CD137-Fc chimeric protein (mouse, UniProt P20334 24-187, limits assumed); experiment: SPR
T1 sequence (looked up): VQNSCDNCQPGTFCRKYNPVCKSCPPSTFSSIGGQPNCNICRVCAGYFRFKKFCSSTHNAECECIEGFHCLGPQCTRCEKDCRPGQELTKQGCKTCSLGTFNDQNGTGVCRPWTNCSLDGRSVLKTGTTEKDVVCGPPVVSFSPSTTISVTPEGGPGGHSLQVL
Procedure, shortened: (§1)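 Kinetics were fitted with a one-to-one Langmuir model to give apparent ka, kd and KD. Binders at 0.12-90 nM (three-fold series) flowed 3 min, with 10 min dissociation and 3 M MgCl₂ regeneration, on a Biacore T200.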

Fc tagged human CD137 = biological target: T2, Fc tagged human CD137 (human, UniProt Q07011 24-186); experiment: SPR
T2 construct: also called CD137-Fc chimeric protein
Procedure, shortened: as §1

[2] = biological target: cynomolgus CD137-Fc chimeric protein (cynomolgus monkey, UniProt A9YYE7 24-186); experiment: SPR
Procedure, shortened: as §1

Fc tagged human PDL1 = biological target: T3, Fc tagged human PDL1 (human, UniProt Q9NZQ7 19-239); experiment: SPR
T3 construct: Bought (Sino Biological, cat. 10084-H02H); captured on the SPR chip; also called PDL1-Fc chimeric protein
Procedure, shortened: as §1

[3] = biological target: T4, CD137 on Jurkat NFkB reporter cells (human, UniProt Q07011 24-255); experiment: cell-based or functional assay
human PDL1 on cells = human PDL1 on cells (human, UniProt Q9NZQ7 19-290); experiment: cell-based or functional assay
biotinylated human PDL1 [4] = biological target: T5, biotinylated human PDL1 (human, UniProt Q9NZQ7 19-238, limits assumed, biotinylated); experiment: competition ELISA PD-1/PDL1 with HSA
T5 construct: also called biotinylated PDL1
Experimental: (§2) Plates were blocked for 1 hour at room temperature by adding 300 μl of PBS with i%BSA and 0.2% tween (dilution buffer) to each well. Inhibitors were serially diluted in 3-fold steps to final concentrations ranging from 300 to 0.005 ng/ml in dilution buffer containing 1 ng/ml biotinylated human PDL1. The mixtures were pre-incubated for 1 hour at room temperature under gentle agitation on a rotating mixer (21 rpm) and added to the microplates after 3 wash cycles with 450 μl wash buffer per well. Plates were incubated for 1.5 hours at room temperature under gentle agitation, then 10 ng/ml streptavidin-polyHRP40 was added to each microplate well after three washes with 450 μl of wash buffer per well. After 1 h incubation at RT, plates were washed three times with 450 μl wash buffer and TMB substrate solution was added. The enzymatic reaction was stopped after 6 minutes by addition of 1 M HCl and absorbance was measured at 450 nm using 690 nm as a reference wavelength. For calculation of IC₅₀ values, a four-parameter logistic (4PL) curve fit was performed in Graph Pad Prism using reference subtracted values.

biotinylated human PDL1 [5] = biological target: T5, biotinylated human PDL1; experiment: PD-1/PDL1 competition ELISA with 1 mg/ml HSA: coated human PD-1, biotinylated human PDL1; blocked ligand: human PD-1
Experimental: as §2

[6] = biological target: T4, CD137 on Jurkat NFkB reporter cells; experiment: cell-based or functional assay; remark: listed apart in the source
biotinylated human PDL1 [7] = biological target: T5, biotinylated human PDL1; experiment: competition ELISA B7.1/PDL1
Procedure, shortened: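 IC₅₀ was derived by four-parameter logistic fitting of reference-subtracted A450/690 readings. The signal came from streptavidin-polyHRP40 (10 ng/ml) with a 6-minute TMB reaction detecting biotinylated PDL1 bound to the plate. Pre-mixed samples sat 1 h at RT before a 1.5 h plate incubation.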

biotinylated human PDL1 [8] = biological target: T5, biotinylated human PDL1; experiment: competition ELISA PD-1/PDL1
human serum albumin = biological target: T6, human serum albumin (human, UniProt P02768 25-609); experiment: SPR, SA coupled to chip, pH 5.5
T6 construct: Coupled directly to the CM5 chip; also called HSA; human SA
Experimental: (§3) Affinity of molecules to serum albumin (SA) of the different species was determined by SPR measurements using a Biacore T200 device (GE Healthcare). SA was directly coupled to a CM5 sensor chip (GE Healthcare) using amine coupling chemistry. […] The assay was run in a 1× PBS-Tween buffer at pH 5.5.

mouse serum albumin = biological target: T7, mouse serum albumin (mouse, UniProt P07724 25-608); experiment: SPR, SA coupled to chip, pH 5.5
T7 construct: Coupled directly to the CM5 chip; also called MSA; mouse SA
Experimental: as §3

[9] = biological target: T4, CD137 on Jurkat NFkB reporter cells; experiment: cell-based or functional assay; remark: listed apart in the source
[10] = biological target: T4, CD137 on Jurkat NFkB reporter cells; experiment: cell-based or functional assay; remark: listed apart in the source

B1: PRO1057 (other)
chain: DIQMTQSPSSLSASVGDRVTITCQASQSINDYLAWYQQKPGKAPKLLIYKASTLASGVPSRFSGSGSGTDFTLTISSLQPEDFATYYCQQGYIITDIDNVFGTGTKVTVLGGGGGSQVQLQESGPGLVKPSETLSLTCKVSGFSFSNSYWICWIRQPPGKGLEWIGCTFVGSSDSTYYANWAKGRVTISVDSSKNQFSLKLSSVTAADTAVYYCARHPSDAVYGYANNLWGQGTLVTVSSGGGGSGGGGSGGGGSGGGGSIQMTQSPSSLSASVGDRVTITCQASQSINNVLAWYQQKPGKAPKLLIYRASTLASGVPSRFSGSGSGTDFTLTISSLQPEDFATYYCQSSYGNYGDFGTGTKVTVLGGGGGSQVQLQESGPGLVKPSETLSLTCKVSGFSFSSGYDMCWIRQPPGKGLEWIGCVVAGSVDITYYASWAKGRVTISVDSSKNQFSLKLSSVTAADTAVYYCARKDAYSDAFNLWGQGTLVTVSSGGGGSGGGGSVVMTQSPSSLSASVGDRVTITCQASQIISSRSAWYQQKPGQPPKLLIYQASKLASGVPSRFSGSGSGTDFTLTISSLQPEDFATYYCQCTYIDSNFGAFGGGTKLTVLGGGGGSGGGGSGGGGSGGGGSEVQLVESGGGLVQPGGSLRLSCAASGFSFSSSYWICWVRQAPGKGLEWVGCVFTGDGTTYYASWAKGRFTISRDNSKNTVYLQMNSLRAEDTATYFCARPVSVYYYGMDLWGQGTLVTVSS
notes: trispecific scDb-scFv; also called 38-02-A04 sc01 scDb-i/33-03-G02 sc01 scDb-o/23-12-A01-sc03, sk17sh4
[1]
  Kd: 1200 nM
Fc tagged human CD137
  Kd: 5.15 nM
  koff: 0.0007 s⁻¹
  kon: 240000 M⁻¹ s⁻¹
[2]
  Kd: 4.8 nM
Fc tagged human PDL1
  Kd: 0.11 nM
  koff: 0.00017 s⁻¹
[3]
  EC50, NFkB reporter, CHO-PDL1, 6 h, +HSA: 0.112 µg/mL
Human PDL1 on cells
  IC50 (ng/ml), NF-AT potency assay, +HSA: 665 ng/mL
  rel. IC50 (avelumab/test), +HSA: 0.1 fold
Biotinylated human PDL1 [4]
  fold change of IC50 in presence of human serum albumin: ~2 fold
Biotinylated human PDL1 [5]
  IC50 (read off the curve): ~0.02 µg/mL
[6]
  EC50, NFkB reporter, HCC827 with IFNg, 24 h, +HSA: 0.115 µg/mL
  EC50, NFkB reporter, HCC827 without IFNg, 24 h, +HSA: 0.0766 µg/mL
Biotinylated human PDL1 [7]
  IC50: 0.0163 µg/mL
  rel. IC50 (IC50 avelumab/IC50 test): 0.53 fold
Biotinylated human PDL1 [8]
  IC50: 0.00861 µg/mL
  rel. IC50 (IC50 avelumab/IC50 test): 0.2 fold
Human serum albumin
  koff: 0.00067 s⁻¹
  kon: 240000 M⁻¹ s⁻¹
Mouse serum albumin
  kon: 130000 M⁻¹ s⁻¹
[9]
  IC50 (ng/ml), NFkB reporter, CHO-PD-L1, 24 h, +HSA: 792 ng/mL
  IC50 (ng/ml), NFkB reporter, HCC827 + IFNg, 24 h, +HSA: 115 ng/mL
  IC50 (ng/ml), NFkB reporter, HCC827 - IFNg, 24 h, +HSA: 76.6 ng/mL
  max. activation (%), NFkB reporter, CHO-PD-L1, 24 h, +HSA: 663%
  rel. IC50 (urelumab/test), NFkB reporter, CHO-PD-L1, 24 h, +HSA: 0.1 fold
  rel. IC50 (urelumab/test), NFkB reporter, HCC827 + IFNg, 24 h, +HSA: 0.46 fold
  rel. IC50 (urelumab/test), NFkB reporter, HCC827 - IFNg, 24 h, +HSA: 0.62 fold
[10]
  EC50, NFkB reporter, CHO-PDL1, 24 h, +HSA: 0.792 µg/mL
